In US20180162952A1 (AbbVie / Abbott, published 2018):

T1: hPTK7-His (soluble His-tagged human PTK7 extracellular domain) (human, UniProt Q13308 31-704)
T1 construct: also called PTK7-ECD-His; monomeric recombinant hPTK7-His (isoform a)
T1 sequence: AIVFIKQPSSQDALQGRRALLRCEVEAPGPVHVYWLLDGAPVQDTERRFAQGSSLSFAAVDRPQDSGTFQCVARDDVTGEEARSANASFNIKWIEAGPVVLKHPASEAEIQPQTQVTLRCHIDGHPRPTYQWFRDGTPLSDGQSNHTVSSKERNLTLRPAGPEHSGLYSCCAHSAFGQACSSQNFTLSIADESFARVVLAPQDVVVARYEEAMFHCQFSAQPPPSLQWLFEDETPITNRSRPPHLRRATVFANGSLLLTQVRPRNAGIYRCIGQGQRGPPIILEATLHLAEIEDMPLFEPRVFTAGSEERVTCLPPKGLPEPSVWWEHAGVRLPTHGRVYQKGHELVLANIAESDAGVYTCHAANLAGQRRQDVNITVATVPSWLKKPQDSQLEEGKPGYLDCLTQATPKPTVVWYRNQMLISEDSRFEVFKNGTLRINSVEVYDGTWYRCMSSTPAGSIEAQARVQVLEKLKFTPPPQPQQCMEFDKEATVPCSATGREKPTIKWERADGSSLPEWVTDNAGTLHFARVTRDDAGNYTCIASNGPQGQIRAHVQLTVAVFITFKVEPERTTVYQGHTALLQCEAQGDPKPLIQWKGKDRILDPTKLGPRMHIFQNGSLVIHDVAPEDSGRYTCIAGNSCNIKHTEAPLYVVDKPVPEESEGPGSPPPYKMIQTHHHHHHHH

T2: PTK7 ECD Ig domains 6-7 Fc fusion (human)
T2 chain: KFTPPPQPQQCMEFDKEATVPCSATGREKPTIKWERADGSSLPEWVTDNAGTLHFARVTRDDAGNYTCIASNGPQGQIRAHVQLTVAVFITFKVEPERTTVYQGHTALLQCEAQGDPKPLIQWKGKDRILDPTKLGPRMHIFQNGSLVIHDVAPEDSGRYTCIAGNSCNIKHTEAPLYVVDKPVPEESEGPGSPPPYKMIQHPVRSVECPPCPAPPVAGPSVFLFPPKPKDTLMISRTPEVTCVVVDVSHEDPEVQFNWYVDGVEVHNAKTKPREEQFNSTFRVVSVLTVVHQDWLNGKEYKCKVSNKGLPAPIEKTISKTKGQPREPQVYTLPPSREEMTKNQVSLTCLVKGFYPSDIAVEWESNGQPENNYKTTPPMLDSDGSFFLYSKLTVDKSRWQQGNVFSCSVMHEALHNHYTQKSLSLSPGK

T3: PTK7 ECD Ig domains 1-4 Fc fusion (human)
T3 chain: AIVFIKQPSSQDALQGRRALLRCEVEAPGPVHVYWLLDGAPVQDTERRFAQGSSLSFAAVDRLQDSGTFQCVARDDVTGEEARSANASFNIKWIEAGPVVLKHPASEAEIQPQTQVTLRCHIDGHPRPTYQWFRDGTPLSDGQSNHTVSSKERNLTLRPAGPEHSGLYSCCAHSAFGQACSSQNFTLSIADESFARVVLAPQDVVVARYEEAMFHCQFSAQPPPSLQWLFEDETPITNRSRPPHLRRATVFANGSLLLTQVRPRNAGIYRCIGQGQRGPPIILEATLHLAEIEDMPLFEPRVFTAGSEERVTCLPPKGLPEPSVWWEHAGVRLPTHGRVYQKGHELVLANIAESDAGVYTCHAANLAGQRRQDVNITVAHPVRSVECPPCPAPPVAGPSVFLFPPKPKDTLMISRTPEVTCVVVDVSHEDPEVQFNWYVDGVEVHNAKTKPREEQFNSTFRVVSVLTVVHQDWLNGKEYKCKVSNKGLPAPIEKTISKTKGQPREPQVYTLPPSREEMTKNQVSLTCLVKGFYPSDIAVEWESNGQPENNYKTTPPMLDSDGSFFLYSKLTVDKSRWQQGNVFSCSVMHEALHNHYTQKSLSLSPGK

T4: PTK7 ECD Ig domains 1-5 Fc fusion (human)
T4 chain: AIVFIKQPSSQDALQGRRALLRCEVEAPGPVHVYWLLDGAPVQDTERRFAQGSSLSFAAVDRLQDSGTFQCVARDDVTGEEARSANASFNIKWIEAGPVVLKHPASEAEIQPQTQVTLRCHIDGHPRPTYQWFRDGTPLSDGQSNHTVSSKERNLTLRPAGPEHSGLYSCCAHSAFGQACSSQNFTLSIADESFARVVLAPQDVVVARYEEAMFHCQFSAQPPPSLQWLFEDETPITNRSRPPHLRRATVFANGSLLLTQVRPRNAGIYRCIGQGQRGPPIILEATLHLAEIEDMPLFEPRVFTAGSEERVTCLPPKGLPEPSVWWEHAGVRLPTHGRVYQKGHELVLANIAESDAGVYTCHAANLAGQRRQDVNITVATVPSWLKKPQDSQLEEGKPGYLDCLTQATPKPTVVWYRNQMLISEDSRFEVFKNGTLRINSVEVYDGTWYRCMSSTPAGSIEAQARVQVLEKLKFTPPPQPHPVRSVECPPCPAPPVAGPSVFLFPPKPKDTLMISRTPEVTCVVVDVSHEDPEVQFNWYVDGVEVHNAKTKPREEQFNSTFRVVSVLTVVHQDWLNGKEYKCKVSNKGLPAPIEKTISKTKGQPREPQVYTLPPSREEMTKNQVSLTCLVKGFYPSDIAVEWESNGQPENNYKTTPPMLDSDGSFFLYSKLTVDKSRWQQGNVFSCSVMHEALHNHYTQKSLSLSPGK


Assays:
[1] = target: T1, hPTK7-His (soluble His-tagged human …); test: Biacore (superscript B); column Affinity (nM)
Description: Second, the affinities and kinetic constants kₒₙ and koff of the selected effectors were then measured using bio-layer interferometry analysis on a ForteBio RED (ForteBio, Inc.) with a standard antigen concentration series. Finally, the affinity of selected modulators was measured by surface plasmon resonance (Biacore System, GE Healthcare).

[2] = target: T2, PTK7 ECD Ig domains 6-7 Fc fusion; test: ELISA, Ig-domain Fc fusion captured by anti-human IgG Fc
Description: (§1) Using these constructs several modulators were tested for their ability to recognize PTK7 proteins with deletions of defined Ig domains. Through an ELISA assay comprising the use of domain deleted constructs and run under standard conditions. In this regard PTK7 Ig domain Fc fusions were captured on ELISA plate coated with goat anti-human IgG Fc-specific (Jackson Immunoresearch) antibody. The ability of each murine anti-PTK7 antibody to bind the various deletion Fc fusion proteins was then detected with HRP-labeled goat anti-mouse Fc-specific antibody.

[3] = target: T3, PTK7 ECD Ig domains 1-4 Fc fusion; test: as above
Description: as §1

[4] = target: T4, PTK7 ECD Ig domains 1-5 Fc fusion; test: as above
Description: as §1

Binder	Kd [1]	binding result [2]	binding result [3]	binding result [4]
SC6.10.2 (antibody, V domains shown, Murine monoclonal antibody from a hybridoma; also called H10.2; H10) VH: QVQLQQSGAELVRPGVSVKISCKGSGYRFTDYPIHWVKQSHAKSLEWIGIISTYYGDVTNNPKFRGKATMTVDKSSTTAYMELARLTSEDSAIYYCARNDLFAYWGQGTLVTVSA VL: DIVMTQSQKFMSTSVGDRVNVTCKASQNVGTNVVWYQQKTGQSPKALIHSASYRYSGVPDRFTGSGSGTDFTLTLSNVQSEDLAEYFCQHYNSFPYTFGGGTKLEIKR	5.6 nM	no binding	binds	binds
SC6.2.35 (antibody, V domains shown, Murine monoclonal antibody from a hybridoma; also called H2.35; SC6.H2) VH: QVQMQQSGAELMKPGASVKLSCKATGYTFTGYWIEWVKQRPGHGLEWIGEILPGSGRSNSNEKFKGKATFTADTSSNTAYMQLSSLTTEDSAIYYCARGKLSWGQGTLVTVSA VL: DIVLTQSPASLAVSLGQRATISCRASESVDSFGNSFMHWYQQKPGQPPKLLIYAASNLGSGVPARFSGSGSGTDFSLNIHPVEEDDSAMYFCQQSKEVPRTFGGGSRLEIKR	< 0.1 nM	no binding	binds	binds
